T1: mH-Y (MiHA-Y) peptide on H-2Db (mouse)
T1 peptide: KCSRNRQYL

T2: HA-1(R), allelic variant; Rho GTPase activating protein 45 (HMHA1) peptide on HLA-A*02:01 (human)
T2 peptide: VLRDDLLEA

T3: HA-1 variant H, HA-1(H); Rho GTPase activating protein 45 (HMHA1) peptide on HLA-A*02:01 (human)
T3 peptide: VLHDDLLEA


Tests used:
Experiment in all cases: activation reporter or marker
[1] = target: T1, mH-Y (MiHA-Y) peptide on H-2Db
[2] = target: T2, HA-1(R), allelic variant; Rho GTPase …
[3] = target: T3, HA-1 variant H, HA-1(H); Rho GTPase …

binding result [1] | binding result [2] | binding result [3] | Binder
recognises |  |  | H-Y TCR Jb2.3L (TCR, V domains shown) Valpha: AQSVDQPDAHVTLSEGASLELRCSYSYSAAPYLFWYVQYPGQSLQFLLKYITGDTVVKGTKGFEAEFRKSNSSFNLKKSPAHWSDSAKYFCALEGQDQGGSAKLIFGEGTKLTVSS Vbeta: EAAVTQSPRNKVAVTGGKVTLSCNQTNNHNNMYWYRQDTGHGLRLIHYSYGAGSTEKGDIPDGYKASRPSQENFSLILELATPSQTSVYFCASGDNSAETLYFGPGTRLLVL
 | no recognition | recognises | KP7 HA-1H TCR (TCR, V domains shown) Valpha: KNEVEQSPQNLTAQEGEFITINCSYSVGISALHWLQQHPGGGIVSLFMLSSGKKKHGRLIATINIQEKHSSLHITASHPRDSAVYICAVRSVSGAGSYQLTFGKGTKLSVIP Vbeta: DTGVSQNPRHKITKRGQNVTFRCDPISEHNRLYWYRQTLGQGPEFLTYFQNEAQLEKSRLLSDRFSAERPKGSFSTLEIQRTEQGDSAMYLCASSIDSFNEQFFGPGTRLTVL

Reference: patent US20240000938A1 (published 2024)
